Target: potassium channel Kv4.3 T1 domain (tetramerization domain, residues 29-143, with N-terminal Met, C-terminal Leu-Glu and six His-tag)
Experiment: X-ray crystal structure of the T1 tetramer

potassium channel Kv4.3 T1 domain (tetramerization domain, residues 29-143, with N-terminal Met, C-terminal Leu-Glu and six His-tag)
solvent-accessible surface area buried by each subunit at its two subunit interfaces: 960 Å^2

From patent US20040091908A1
